# In patent publication US20210032299A1 (Eli Lilly, published 2021):
# Positions count from the first letter of the chain named. Starred links: 1 amine or outer side, 2 acyl side, 3 side chain; linkers in the order of their positions; H or OH if unused. Non-standard residues stand in square brackets, D forms with d. Groups on a side chain read outwards from the residue. No end group written: not given here. *: point of attachment. C20 diacid = O=C(O)CCCCCCCCCCCCCCCCCCC(=O)*; C18 diacid = O=C(O)CCCCCCCCCCCCCCCCC(=O)*; αMePhe(2-F) = C[C@](N)(Cc1ccccc1F)C(=O)O; γGlu = O=C(O)[C@H](CCC(=O)[*:2])N[*:1]; αMeF = C[C@](N)(Cc1ccccc1)C(=O)O; 4Pal = N[C@@H](Cc1ccncc1)C(=O)O; AEEA = NCCOCCOCC(=O)O; Aib = CC(C)(N)C(=O)O
# T1: human glucose-dependent insulinotropic peptide receptor (human, UniProt P48546 22-466)
# T1 sequence (looked up): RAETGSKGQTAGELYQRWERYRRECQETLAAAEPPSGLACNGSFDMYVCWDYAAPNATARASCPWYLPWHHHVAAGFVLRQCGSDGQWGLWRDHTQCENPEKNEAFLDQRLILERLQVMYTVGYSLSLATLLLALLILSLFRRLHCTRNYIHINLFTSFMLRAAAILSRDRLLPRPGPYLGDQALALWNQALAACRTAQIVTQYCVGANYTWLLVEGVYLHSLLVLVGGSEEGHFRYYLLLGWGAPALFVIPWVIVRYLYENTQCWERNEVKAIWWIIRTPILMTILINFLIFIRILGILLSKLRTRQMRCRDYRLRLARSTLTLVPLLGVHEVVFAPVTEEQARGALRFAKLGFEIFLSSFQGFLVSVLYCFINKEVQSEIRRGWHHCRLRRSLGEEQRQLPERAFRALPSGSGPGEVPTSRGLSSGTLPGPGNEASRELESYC
# B1: Example 23 (peptide)
# peptide: Y[Aib]EGT[αMeF]ISDYSIALDKK([AEEA-AEEA-γGlu-C18 diacid])HQ[Aib]DFVE[4Pal]LLAGGPSSGAPPPS-NH2
# modifications: N-terminus assumed
# SMILES: CC[C@H](C)[C@H](NC(=O)[C@H](CO)NC(=O)[C@H](Cc1ccc(O)cc1)NC(=O)[C@H](CC(=O)O)NC(=O)[C@H](CO)NC(=O)[C@@H](NC(=O)[C@](C)(Cc1ccccc1)NC(=O)[C@@H](NC(=O)CNC(=O)[C@H](CCC(=O)O)NC(=O)C(C)(C)NC(=O)[C@@H](N)Cc1ccc(O)cc1)[C@@H](C)O)[C@@H](C)CC)C(=O)N[C@@H](C)C(=O)N[C@@H](CC(C)C)C(=O)N[C@@H](CC(=O)O)C(=O)N[C@@H](CCCCN)C(=O)N[C@@H](CCCCNC(=O)COCCOCCNC(=O)COCCOCCNC(=O)CC[C@H](NC(=O)CCCCCCCCCCCCCCCCC(=O)O)C(=O)O)C(=O)N[C@@H](Cc1c[nH]cn1)C(=O)N[C@@H](CCC(N)=O)C(=O)NC(C)(C)C(=O)N[C@@H](CC(=O)O)C(=O)N[C@@H](Cc1ccccc1)C(=O)N[C@H](C(=O)N[C@@H](CCC(=O)O)C(=O)N[C@@H](Cc1ccncc1)C(=O)N[C@@H](CC(C)C)C(=O)N[C@@H](CC(C)C)C(=O)N[C@@H](C)C(=O)NCC(=O)NCC(=O)N1CCC[C@H]1C(=O)N[C@@H](CO)C(=O)N[C@@H](CO)C(=O)NCC(=O)N[C@@H](C)C(=O)N1CCC[C@H]1C(=O)N1CCC[C@H]1C(=O)N1CCC[C@H]1C(=O)N[C@@H](CO)C(N)=O)C(C)C
# B2: Example 24 (peptide)
# peptide: Y[Aib]EGTFISDYSI[Aib]LDKK([AEEA-AEEA-γGlu-C18 diacid])HQ[Aib]DFVE[4Pal]LLAGGPSSGAPPPS-NH2
# modifications: N-terminus assumed
# SMILES: CC[C@H](C)[C@H](NC(=O)[C@H](Cc1ccccc1)NC(=O)[C@@H](NC(=O)CNC(=O)[C@H](CCC(=O)O)NC(=O)C(C)(C)NC(=O)[C@@H](N)Cc1ccc(O)cc1)[C@@H](C)O)C(=O)N[C@@H](CO)C(=O)N[C@@H](CC(=O)O)C(=O)N[C@@H](Cc1ccc(O)cc1)C(=O)N[C@@H](CO)C(=O)N[C@H](C(=O)NC(C)(C)C(=O)N[C@@H](CC(C)C)C(=O)N[C@@H](CC(=O)O)C(=O)N[C@@H](CCCCN)C(=O)N[C@@H](CCCCNC(=O)COCCOCCNC(=O)COCCOCCNC(=O)CC[C@H](NC(=O)CCCCCCCCCCCCCCCCC(=O)O)C(=O)O)C(=O)N[C@@H](Cc1c[nH]cn1)C(=O)N[C@@H](CCC(N)=O)C(=O)NC(C)(C)C(=O)N[C@@H](CC(=O)O)C(=O)N[C@@H](Cc1ccccc1)C(=O)N[C@H](C(=O)N[C@@H](CCC(=O)O)C(=O)N[C@@H](Cc1ccncc1)C(=O)N[C@@H](CC(C)C)C(=O)N[C@@H](CC(C)C)C(=O)N[C@@H](C)C(=O)NCC(=O)NCC(=O)N1CCC[C@H]1C(=O)N[C@@H](CO)C(=O)N[C@@H](CO)C(=O)NCC(=O)N[C@@H](C)C(=O)N1CCC[C@H]1C(=O)N1CCC[C@H]1C(=O)N1CCC[C@H]1C(=O)N[C@@H](CO)C(N)=O)C(C)C)[C@@H](C)CC
# B3: Example 25 (peptide)
# peptide: Y[Aib]EGT[αMeF]ISDYSIALDKK([AEEA-AEEA-γGlu-C20 diacid])HQ[Aib]EFVNWLLAGGPSSGAPPPS-NH2
# modifications: N-terminus assumed
# SMILES: CC[C@H](C)[C@H](NC(=O)[C@H](CO)NC(=O)[C@H](Cc1ccc(O)cc1)NC(=O)[C@H](CC(=O)O)NC(=O)[C@H](CO)NC(=O)[C@@H](NC(=O)[C@](C)(Cc1ccccc1)NC(=O)[C@@H](NC(=O)CNC(=O)[C@H](CCC(=O)O)NC(=O)C(C)(C)NC(=O)[C@@H](N)Cc1ccc(O)cc1)[C@@H](C)O)[C@@H](C)CC)C(=O)N[C@@H](C)C(=O)N[C@@H](CC(C)C)C(=O)N[C@@H](CC(=O)O)C(=O)N[C@@H](CCCCN)C(=O)N[C@@H](CCCCNC(=O)COCCOCCNC(=O)COCCOCCNC(=O)CC[C@H](NC(=O)CCCCCCCCCCCCCCCCCCC(=O)O)C(=O)O)C(=O)N[C@@H](Cc1c[nH]cn1)C(=O)N[C@@H](CCC(N)=O)C(=O)NC(C)(C)C(=O)N[C@@H](CCC(=O)O)C(=O)N[C@@H](Cc1ccccc1)C(=O)N[C@H](C(=O)N[C@@H](CC(N)=O)C(=O)N[C@@H](Cc1c[nH]c2ccccc12)C(=O)N[C@@H](CC(C)C)C(=O)N[C@@H](CC(C)C)C(=O)N[C@@H](C)C(=O)NCC(=O)NCC(=O)N1CCC[C@H]1C(=O)N[C@@H](CO)C(=O)N[C@@H](CO)C(=O)NCC(=O)N[C@@H](C)C(=O)N1CCC[C@H]1C(=O)N1CCC[C@H]1C(=O)N1CCC[C@H]1C(=O)N[C@@H](CO)C(N)=O)C(C)C
# B4: Example 26 (peptide)
# peptide: Y[Aib]EGT[αMePhe(2-F)]ISDYSIALDKK([AEEA-AEEA-γGlu-C20 diacid])HQ[Aib]EFVNWLLAGGPSSGAPPPS-NH2
# modifications: N-terminus assumed
# SMILES: CC[C@H](C)[C@H](NC(=O)[C@H](CO)NC(=O)[C@H](Cc1ccc(O)cc1)NC(=O)[C@H](CC(=O)O)NC(=O)[C@H](CO)NC(=O)[C@@H](NC(=O)[C@](C)(Cc1ccccc1F)NC(=O)[C@@H](NC(=O)CNC(=O)[C@H](CCC(=O)O)NC(=O)C(C)(C)NC(=O)[C@@H](N)Cc1ccc(O)cc1)[C@@H](C)O)[C@@H](C)CC)C(=O)N[C@@H](C)C(=O)N[C@@H](CC(C)C)C(=O)N[C@@H](CC(=O)O)C(=O)N[C@@H](CCCCN)C(=O)N[C@@H](CCCCNC(=O)COCCOCCNC(=O)COCCOCCNC(=O)CC[C@H](NC(=O)CCCCCCCCCCCCCCCCCCC(=O)O)C(=O)O)C(=O)N[C@@H](Cc1c[nH]cn1)C(=O)N[C@@H](CCC(N)=O)C(=O)NC(C)(C)C(=O)N[C@@H](CCC(=O)O)C(=O)N[C@@H](Cc1ccccc1)C(=O)N[C@H](C(=O)N[C@@H](CC(N)=O)C(=O)N[C@@H](Cc1c[nH]c2ccccc12)C(=O)N[C@@H](CC(C)C)C(=O)N[C@@H](CC(C)C)C(=O)N[C@@H](C)C(=O)NCC(=O)NCC(=O)N1CCC[C@H]1C(=O)N[C@@H](CO)C(=O)N[C@@H](CO)C(=O)NCC(=O)N[C@@H](C)C(=O)N1CCC[C@H]1C(=O)N1CCC[C@H]1C(=O)N1CCC[C@H]1C(=O)N[C@@H](CO)C(N)=O)C(C)C
# B5: Example 27 (peptide)
# peptide: YXEGTFISDYSILLDKKAQXEFVQWLLAGGPSSGAPPPS
# modifications: D-Ala2; K17((2-[2-(2-Amino-ethoxy)-ethoxy]-acetyl)2-(γ-Glu)-CO-(CH2)16-CO2H); Aib20; C-terminal amide
# B6: Example 28 (peptide)
# peptide: B5 peptide with Q24N, A28E
# modifications: D-Ala2; K17((2-[2-(2-Amino-ethoxy)-ethoxy]-acetyl)2-(γ-Glu)-CO-(CH2)16-CO2H); Aib20; C-terminal amide
# B7: Example 29 (peptide)
# peptide: B5 peptide with Q24E
# modifications: D-Ala2; K17((2-[2-(2-Amino-ethoxy)-ethoxy]-acetyl)2-(γ-Glu)-CO-(CH2)16-CO2H); Aib20; C-terminal amide
# Experiments:
# Assay in all cases: cell-based or functional assay
# [1] = biological target: human GLP-1 receptor (human, UniProt P43220 24-463)
# [2] = biological target: human glucagon receptor (human, UniProt P47871 26-477)
# [3] = biological target: T1, human glucose-dependent insulinotropic …
# Chain of human glucagon receptor (P47871 26-477): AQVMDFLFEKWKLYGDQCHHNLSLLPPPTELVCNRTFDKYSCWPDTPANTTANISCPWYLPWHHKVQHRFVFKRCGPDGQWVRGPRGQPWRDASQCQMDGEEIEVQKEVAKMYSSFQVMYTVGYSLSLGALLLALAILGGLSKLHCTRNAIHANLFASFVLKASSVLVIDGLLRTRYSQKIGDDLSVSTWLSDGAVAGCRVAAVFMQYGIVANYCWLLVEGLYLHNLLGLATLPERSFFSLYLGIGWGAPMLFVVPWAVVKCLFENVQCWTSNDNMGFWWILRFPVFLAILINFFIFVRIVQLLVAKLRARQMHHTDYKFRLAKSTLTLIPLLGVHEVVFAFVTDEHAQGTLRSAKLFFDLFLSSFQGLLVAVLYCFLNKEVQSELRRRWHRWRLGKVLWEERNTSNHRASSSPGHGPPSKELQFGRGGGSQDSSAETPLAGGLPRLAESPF
binder,measurement,setting,value
B1,hGLP1R cAMP Rel EC50,[1],206 nM
same,hGcgR cAMP Rel EC50,[2],> 5000 nM
same,hGIPR cAMP Rel EC50,[3],0.0192 nM
B2,hGLP1R cAMP Rel EC50,[1],> 5000 nM
same,hGcgR cAMP Rel EC50,[2],> 5000 nM
same,hGIPR cAMP Rel EC50,[3],0.0699 nM
B3,hGLP1R cAMP Rel EC50,[1],8.39 nM
same,hGcgR cAMP Rel EC50,[2],> 5000 nM
same,hGIPR cAMP Rel EC50,[3],0.0155 nM
B4,hGLP1R cAMP Rel EC50,[1],5.69 nM
same,hGcgR cAMP Rel EC50,[2],> 5000 nM
same,hGIPR cAMP Rel EC50,[3],0.00991 nM
B5,hGLP1R cAMP Rel EC50,[1],> 5000 nM
same,hGcgR cAMP Rel EC50,[2],> 5000 nM
same,hGIPR cAMP Rel EC50,[3],0.0132 nM
B6,hGLP1R cAMP Rel EC50,[1],> 5000 nM
same,hGcgR cAMP Rel EC50,[2],> 5000 nM
same,hGIPR cAMP Rel EC50,[3],0.0118 nM
B7,hGLP1R cAMP Rel EC50,[1],> 5000 nM
same,hGcgR cAMP Rel EC50,[2],> 5000 nM
same,hGIPR cAMP Rel EC50,[3],0.00679 nM
